The source of these data is patent publication US20180148514A1, “MULTIVALENT MEDITOPES, MEDITOPE-BINDING ANTIBODIES AND USES THEREOF” (City of Hope, priority 2014, published 2018).

Bounds are passed on as bounds.

Assay [1] deals with meditope enabled antibody trastuzumab. Nature of the assay: SPR analysis of BVM and TVM gel filtration fractions. It is filed as binding. As to conditions: BVM fractions 26-29, TVM fractions 21-23. (Surface plasmon resonance follows binding to a sensor surface in real time, without labels.)
The test system of assay [2] is Meditope-enabled trastuzumab version 2. As to the kind of experiment: SPR multivalent meditope valency test at varying ligand densities. The class given is binding. As to conditions: for Ka / t1/2: 37° C., 1:1 fit. The protocol: The low density channel was approximately 150 RU (FIG. 19A), the medium density channel was approximately 750 RU (FIG. 19B), and the high density channel was approximately 1500 RU (FIG. 19C).
Trivalent meditope (TVM) (SEQ ID NO: 231) concentrations were prepared as a 5-fold dilution series from 1 μM to 2.6 pM in HBS-EP+. Samples were flowed over all four channels at 30 μL/min at 37° C. Sensograms were double referenced to the blank immobilization on channel 1 and with two “0” concentration buffer blanks.
A control meditope peptide was run at the beginning and end of the experiment to assess for loss of surface activity during the experiment. Less than 5% decrease in signal was observed on the most dense ligand surface after the experiment was completed. Regeneration buffer for the experiment was a pulse of 10 mM glycine pH 3.0 with variable time from 2-10 seconds followed by a 30 sec pulse of running buffer HBS-EP+.
Data fits were performed using BiaEvaluation software with the 1:1 fit model. Data fit quality to the 1:1 binding model decreased as the surface density of ligand increased and the off rate was not well determined due to lack of curvature.

For the next assay, the system named is SKBR3 cells. Nature of the assay: Microscopy of SKBR3 cells with labeled TVM and trastuzumab variants. The class given is cell-based. Here is the method: TVM was labeled with NHS-Alexa Fluor 647 following the manufacturer's protocol (Thermo Fisher Scientific, Waltham Mass.) 0.1 M sodium bicarbonate buffer pH 8.0 at room temperature for 1 hour).
For the next assay, the system named is Raji-B cells. Nature of the assay: pHrodo-labeled CD-19 antibody internalization, fluorescence microscopy, Raji-B. The class given is cell-based, human. As to conditions: 100 nM antibody with or without 100 nM meditope-Fc, 30 minutes, 37° C., n=8. The protocol:
Raji-B cells, a human B lymphocyte cell line derived from human lymphoblast, CCL-86™, ATCC®, were stained for fluorescence microscopy to determine receptor-mediated endocytosis rates of the pHrodo™-labeled CD-19 antibody. Cells were stained in Nunc® Lab-Tek® II chambered 8 well coverglass polystyrene chambers (0.7 cm^2/well). Cells were stained using either 100 nM antibody and 100 nM of Alexa Fluor 488®-labeled meditope-Fc (SEQ ID NO: 236) or 100 nM antibody alone (control) for 30 minutes at 37° C. in serum-free media. Nuclei of Raji-B cells were also stained with Hoechst 33342 (2 μg/mL final concentration for 20 minutes).
Cells were imaged with a confocal microscope using appropriate wavelength settings for pHrodo™-labeled antibodies, Alexa Fluor 488-labeled meditope-Fc, and Hoechst 33342-labeled nuclei. Z sectioning permitted visualization of the internalized materials and all quantitative measurements were taken at the same defined section height. Cells were visualized and quantified at each time point for each visualization event. Total fluorescence of each stain inside and outside of imaged cells were calculated using ImageJ analysis at a single time point of 30 minutes. Total staining for MOR-208 alone was calculated as 1797.71±194.97 (n=8). Total staining for MOR-208 bound to meditope-Fc was calculated as 4430.43±632.59 (n=8).

Setting [3] is: most densely immobilized surface.

B1: BVM: bivalent meditope, peptide sequence of SEQ ID NO: 229 (protein)
chain: MGSSHHHHHHSSGLVPRGSHMGGGSWSHPQFEKGGGSGGGMSDSEVNQEAKPEVKPEVKPETHINLKVSDGSSEIFFKIKKTTPLRRLMEAFAKRQGKEMDSLRFLYDGIRIQADQTPEDLDMEDNDIIEAHREQIGGGGSAAPSSAPSPSAPCQFDLSTRRLSCGGASPAASPSAPSSPAPKAPSAAPSSAPSPSAPGGCQFDLSTRRLSCGGASPAASPSAPSSPAPK
modifications: (1)..(230) His6-SMT3-Bivalent meditope (BVM) sequence (Amino Acid)
Consider B1, for which the “binding (SPR)” value in assay [1] is given as “bound meditope enabled antibody trastuzumab antibodies”.

B2: TVM: trivalent meditope, peptide sequence of SEQ ID NO: 231, expressed in E. coli (protein)
chain: MGGGSWSHPQFEKGGGSGGGMSDSEVNQEAKPEVKPEVKPETHINLKVSDGSSEIFFKIKKTTPLRRLMEAFAKRQGKEMDSLRFLYDGIRIQADQTPEDLDMEDNDIIEAHREQIGGGGSAAPSSAPSPSAPCQFDLSTRRLSCGGASPAASPSAPSSPAPKAPSAAPSSAPSPSAPGGCQFDLSTRRLSCGGASPAASPSAPSSPAPKAPSAAPSSAPSPSAPGGCQFDLSTRRLSCGGSPSAPSSPSSPKLPETG
modifications: (1)..(258) His6-SMT-Trivalent meditope (TVM) sequence (Amino Acid)
For the molecule B2, in assay [1], the “binding (SPR)” value is “bound meditope enabled antibody trastuzumab antibodies”. The Ka was 8700 M⁻¹ s⁻¹ in assay [2] (density 150 RU), 10000 M⁻¹ s⁻¹ in assay [2] (density 750 RU) and 9800 M⁻¹ s⁻¹ in assay [2] (density 1500 RU). Besides, the t1/2 in assay [2] (density 150 RU) amounted to 0.4 h; in assay [2] (density 750 RU) it was 1.3 h; in assay [2] (density 1500 RU), 2.4 h. For the same molecule, in assay [2] (setting [3]), the half-life (as a rule, how long it takes for the measured level to halve) was 2.42 h. In addition, in assay [2] (setting [3]), the “improvement of half-life over monovalent meditope” value is given as above 30 fold. For the same molecule, the “cell morphology and attachment” value with SKBR3 cells (labeled TVM with meditope enabled antibody trastuzumab) is “rounded morphology and frequently detached from the surface of the coverslides”; in the assay on SKBR3 cells (labeled TVM with parental trastuzumab), “not observed”.

B3: MOR-208: Meditope-enabled MOR208 (CD-19 antibody), light chain SEQ ID NO: 226, heavy chain SEQ ID NO: 227, pHrodo labeled (protein)
light: DIVMTQSPAILSLSPGERATLSCRSSKSLQNVNGNTYLYWFQQKTNGSPRLLIYRMSNLNSGVPDRFSGSGSGTEFTLTISSLEPEDEADYYCIQHLEYPITFGAGTKLEIKRTVAAPSVFIFPPSDEQLKSGTASVVCLLNNFYPREAKVQWKVDNALQSGNSQESVTEQDSKDSTYSLSSTLTLSKADYEKHKVYACEVTHQGLSSPVTKSFNRGEC
heavy: EVQLVESGGGLVKPGGSLKLSCAASGYTFTSYVMHWVRQSPGKGLEWIGYINPYNDGTKYNEKFQGRVTISSDKSISTAYMELSSLRSEDTAIYYCARGTYYYGTRVFDYWGQGTLVTVSSASTKGPSVFPLAPSSKSTSGGTAALGCLVKDYFPEPVTVSWNSGALTSGVHTFPAVLQSSGLYSLSSVVTVPSSSLGTQTYICNVNHKPSNTKVDKKVEPKSCDKTHTCPPCPAPELLGGPDVFLFPPKPKDTLMISRTPEVTCVVVDVSHEDPEVQFNWYVDGVEVHNAKTKPREEQFNSTFRVVSVLTVVHQDWLNGKEYKCKVSNKALPAPEEKTISKTKGQPREPQVYTLPPSREEMTKNQVSLTCLVKGFYPSDIAVEWESNGQPENNYKTTPPMLDSDGSFFLYSKLTVDKSRWQQGNVFSCSVMHEALHNHYTQKSLSLSPGK
modifications: pHrodo label; (1)..(219) MOR-208 Light chain; (1)..(451) MOR-208 Heavy chain
For B3, in the assay on Raji-B cells, the “total staining (total fluorescence, ImageJ)” value was 1797.71±194.97.
